One block for each binder: values may come before it.
Experiments:
[1] = target: T1, 4H797-bH; assay: two-hybrid library CCNG1;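 also: natural log of median RNA to DNA barcode read ratio; higher means stronger binding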
T1 chain: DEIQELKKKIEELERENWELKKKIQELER

[2] = target: T2, 4H967-bH; assay: two-hybrid library CCNG1;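 also: natural log of median RNA to DNA barcode read ratio; higher means stronger binding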
T2 chain: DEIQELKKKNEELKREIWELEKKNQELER

[3] = target: T3, 4H908-bH; assay: two-hybrid library CCNG1;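 also: natural log of median RNA to DNA barcode read ratio; higher means stronger binding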
T3 chain: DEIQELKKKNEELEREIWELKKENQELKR

[4] = target: T4, 4H855-bH; assay: two-hybrid library CCNG1;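 also: natural log of median RNA to DNA barcode read ratio; higher means stronger binding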
T4 chain: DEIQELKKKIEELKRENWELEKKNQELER

[5] = target: T5, 4H918-bH; assay: two-hybrid library CCNG1;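 also: natural log of median RNA to DNA barcode read ratio; higher means stronger binding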
T5 chain: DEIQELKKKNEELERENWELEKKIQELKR

[6] = target: T6, 4H883-bH; assay: two-hybrid library CCNG1;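 also: natural log of median RNA to DNA barcode read ratio; higher means stronger binding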
T6 chain: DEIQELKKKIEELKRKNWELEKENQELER

[7] = target: T7, 4H953-bH; assay: two-hybrid library CCNG1
T7 chain: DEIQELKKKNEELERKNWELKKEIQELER

[8] = target: T8, 4H968-bH; assay: two-hybrid library CCNG1
T8 chain: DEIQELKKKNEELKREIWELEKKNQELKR

[9] = target: T9, O16-bA; assay: two-hybrid library CCNG1
T9 chain: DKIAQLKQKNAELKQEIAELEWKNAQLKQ

[10] = target: T10, O3-bA; assay: two-hybrid library CCNG1
T10 chain: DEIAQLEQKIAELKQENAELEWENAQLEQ

[11] = target: T11, O7-bA; assay: two-hybrid library CCNG1
T11 chain: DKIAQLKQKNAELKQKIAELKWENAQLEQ

[12] = target: T12, O4-bA; assay: two-hybrid library CCNG1
T12 chain: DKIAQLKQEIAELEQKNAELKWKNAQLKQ

[13] = target: T13, O9-bA; assay: two-hybrid library CCNG1
T13 chain: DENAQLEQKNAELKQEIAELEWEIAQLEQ

[14] = target: T14, O8-bA; assay: two-hybrid library CCNG1
T14 chain: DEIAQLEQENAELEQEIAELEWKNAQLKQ

[15] = target: T15, O6-bA; assay: two-hybrid library CCNG1
T15 chain: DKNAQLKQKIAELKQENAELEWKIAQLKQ

[16] = target: T16, O2-bA; assay: two-hybrid library CCNG1
T16 chain: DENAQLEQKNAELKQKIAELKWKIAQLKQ

[17] = target: T17, O5-bA; assay: two-hybrid library CCNG1
T17 chain: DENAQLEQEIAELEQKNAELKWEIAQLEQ

[18] = target: T18, 4H3664-AA; assay: two-hybrid library CCmax; details: mean of both orientations
T18 chain: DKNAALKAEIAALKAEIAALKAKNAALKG

[19] = target: T19, 4H3625-AA; assay: two-hybrid library CCmax; details: mean of both orientations
T19 chain: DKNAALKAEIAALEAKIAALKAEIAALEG

[20] = target: T20, 4H2513-AA; assay: two-hybrid library CCmax
T20 chain: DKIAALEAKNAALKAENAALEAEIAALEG

[21] = target: T21, 4H3922-AA; assay: two-hybrid library CCmax; details: mean of both orientations
T21 chain: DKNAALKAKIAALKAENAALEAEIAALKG

[22] = target: T22, 4H2935-AA; assay: two-hybrid library CCmax; details: mean of both orientations
T22 chain: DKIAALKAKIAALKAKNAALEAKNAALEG

[23] = target: T23, 4H2614-AA; assay: two-hybrid library CCmax; details: mean of both orientations
T23 chain: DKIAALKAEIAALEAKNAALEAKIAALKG

[24] = target: T24, 4H662-AA; assay: two-hybrid library CCmax; details: mean of both orientations
T24 chain: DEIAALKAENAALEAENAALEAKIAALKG

[25] = target: T25, 4H327-AA; assay: two-hybrid library CCmax; details: mean of both orientations
T25 chain: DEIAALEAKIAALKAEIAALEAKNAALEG

[26] = target: T26, 4H481-AA; assay: two-hybrid library CCmax; details: mean of both orientations
T26 chain: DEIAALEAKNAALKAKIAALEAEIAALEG

[27] = target: T27, 4H4033-AA; assay: two-hybrid library CCmax; details: mean of both orientations
T27 chain: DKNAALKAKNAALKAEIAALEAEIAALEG

[28] = target: T28, 4H369-AA; assay: two-hybrid library CCmax; details: mean of both orientations
T28 chain: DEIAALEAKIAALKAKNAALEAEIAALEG

[29] = target: T29, 4H2726-AA; assay: two-hybrid library CCmax; details: mean of both orientations
T29 chain: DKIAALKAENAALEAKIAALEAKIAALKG

[30] = target: T30, 4H3605-AA; assay: two-hybrid library CCmax; details: mean of both orientations
T30 chain: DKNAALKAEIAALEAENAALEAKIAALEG

[31] = target: T31, 4H2608-AA; assay: two-hybrid library CCmax; details: mean of both orientations
T31 chain: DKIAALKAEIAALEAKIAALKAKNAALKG

[32] = target: T32, 4H2536-AA; assay: two-hybrid library CCmax
T32 chain: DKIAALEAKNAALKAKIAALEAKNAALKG

[33] = target: T33, 4H55-AA; assay: two-hybrid library CCmax
T33 chain: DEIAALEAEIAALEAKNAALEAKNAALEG

[34] = target: T34, 4H953-bN; assay: two-hybrid library CCNG1
T34 chain: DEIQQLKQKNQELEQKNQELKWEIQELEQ

[35] = target: T35, 4H3427-bN; assay: two-hybrid library CCNG1
T35 chain: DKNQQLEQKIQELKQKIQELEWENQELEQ

[36] = target: T36, 4H717-bN; assay: two-hybrid library CCNG1
T36 chain: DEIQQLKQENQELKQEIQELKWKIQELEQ

[37] = target: T37, 4H72-bN; assay: two-hybrid library CCNG1
T37 chain: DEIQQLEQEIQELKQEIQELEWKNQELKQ

[38] = target: T38, 4H338-bN; assay: two-hybrid library CCNG1
T38 chain: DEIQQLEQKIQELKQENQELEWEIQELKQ

[39] = target: T39, 4H797-bN; assay: two-hybrid library CCNG1
T39 chain: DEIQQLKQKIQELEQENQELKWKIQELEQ

[40] = target: T40, 4H3817-bN; assay: two-hybrid library CCNG1
T40 chain: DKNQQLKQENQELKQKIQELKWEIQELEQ

[41] = target: T41, 4H3112-bN; assay: two-hybrid library CCNG1
T41 chain: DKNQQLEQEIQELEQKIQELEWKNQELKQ

[42] = target: T42, 4H2729-bN; assay: two-hybrid library CCNG1
T42 chain: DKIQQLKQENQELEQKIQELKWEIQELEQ

[43] = target: T43, 4H754-bN; assay: two-hybrid library CCNG1
T43 chain: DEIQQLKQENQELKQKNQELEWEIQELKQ

[44] = target: T44, 4H687-bN; assay: two-hybrid library CCNG1
T44 chain: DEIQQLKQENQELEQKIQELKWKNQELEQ

[45] = target: T45, 4H918-bN; assay: two-hybrid library CCNG1
T45 chain: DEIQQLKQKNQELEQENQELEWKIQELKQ

[46] = target: T46, 4H3354-bN; assay: two-hybrid library CCNG1
T46 chain: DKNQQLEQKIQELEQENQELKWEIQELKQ

[47] = target: T47, 4H3782-bN; assay: two-hybrid library CCNG1
T47 chain: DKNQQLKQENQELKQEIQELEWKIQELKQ

[48] = target: T48, 4H568-bN; assay: two-hybrid library CCNG1
T48 chain: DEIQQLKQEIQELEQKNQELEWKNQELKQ

[49] = target: T49, 4H908-bN; assay: two-hybrid library CCNG1
T49 chain: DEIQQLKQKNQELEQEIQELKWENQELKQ

[50] = target: T50, 4H607-bN; assay: two-hybrid library CCNG1
T50 chain: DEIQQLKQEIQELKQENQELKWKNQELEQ

[51] = target: T51, 4H331-bN; assay: two-hybrid library CCNG1
T51 chain: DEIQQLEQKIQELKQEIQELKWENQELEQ

[52] = target: T52, 4H3855-bN; assay: two-hybrid library CCNG1
T52 chain: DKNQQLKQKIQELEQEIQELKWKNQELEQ

[53] = target: T53, 4H967-bN; assay: two-hybrid library CCNG1
T53 chain: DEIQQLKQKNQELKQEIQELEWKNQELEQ

[54] = target: T54, 4H4001-bN; assay: two-hybrid library CCNG1
T54 chain: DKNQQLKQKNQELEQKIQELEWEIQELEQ

[55] = target: T55, 4H454-bN; assay: two-hybrid library CCNG1
T55 chain: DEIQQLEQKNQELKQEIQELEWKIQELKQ

[56] = target: T56, 4H3185-bN; assay: two-hybrid library CCNG1
T56 chain: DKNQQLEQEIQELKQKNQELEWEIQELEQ

[57] = target: T57, 4H883-bN; assay: two-hybrid library CCNG1
T57 chain: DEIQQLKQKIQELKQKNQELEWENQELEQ

[58] = target: T58, 4H3606-bN; assay: two-hybrid library CCNG1
T58 chain: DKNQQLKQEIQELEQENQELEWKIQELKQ

[59] = target: T59, 4H3189-bN; assay: two-hybrid library CCNG1
T59 chain: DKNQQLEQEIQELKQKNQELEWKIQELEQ

[60] = target: T60, 4H3843-bN; assay: two-hybrid library CCNG1
T60 chain: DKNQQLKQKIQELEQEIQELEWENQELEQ

[61] = target: T61, 4H575-bA; assay: two-hybrid library CCNG1
T61 chain: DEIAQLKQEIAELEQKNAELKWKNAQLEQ

[62] = target: T62, 4H370-bN; assay: two-hybrid library CCNG1
T62 chain: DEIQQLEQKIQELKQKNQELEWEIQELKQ

[63] = target: T63, 4H462-bN; assay: two-hybrid library CCNG1
T63 chain: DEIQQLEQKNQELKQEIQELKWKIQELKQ

[64] = target: T64, 4H2697-bN; assay: two-hybrid library CCNG1
T64 chain: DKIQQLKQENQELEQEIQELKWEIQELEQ

[65] = target: T65, 4H2667-bN; assay: two-hybrid library CCNG1
T65 chain: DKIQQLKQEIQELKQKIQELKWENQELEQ

interaction score [1]: -0.311
interaction score [2]: 0.229
interaction score [3]: -0.915
interaction score [4]: -1.17
interaction score [5]: 0.24
interaction score [6]: 0.639
interaction score [7]: -0.0525
interaction score [8]: -0.0614
interaction score [9]: -0.174
Binder: DEIQELKKKIEELERENWELKKKIQELER [4H797-bH]

interaction score [10]: -0.599
interaction score [11]: 1.33
interaction score [12]: -0.54
interaction score [13]: -1.22
interaction score [14]: 1.35
interaction score [15]: 1.4
interaction score [16]: -0.141
interaction score [9]: -0.811
interaction score [17]: -1.16
Binder: DKIAQLKQKNAELKQEIAELEWKNAQLKQ [O16-bA]

interaction score [18]: -1.85
interaction score [19]: -2
interaction score [20]: -1.49
interaction score [21]: -1.74
interaction score [22]: -2.01
interaction score [23]: 0.461
interaction score [24]: 1.22
interaction score [25]: -1.74
interaction score [26]: -1.36
interaction score [27]: -1.46
interaction score [28]: -1.79
interaction score [29]: 0.913
interaction score [30]: -1.25
interaction score [31]: -1.07
interaction score [32]: -0.747
interaction score [33]: -1.88
Binder: DKIAALEAKNAALKAENAALEAEIAALEG [4H2513-AA]

interaction score [34]: -0.965
interaction score [35]: -1.07
interaction score [36]: -1.59
interaction score [37]: -1.09
interaction score [38]: -1.12
interaction score [39]: -1.01
interaction score [40]: -0.912
interaction score [41]: -0.365
interaction score [42]: -1.82
interaction score [43]: -0.565
interaction score [44]: -0.901
interaction score [45]: -0.584
interaction score [46]: -0.621
interaction score [47]: -0.911
interaction score [48]: -1.47
interaction score [49]: -1.64
interaction score [50]: -1.28
interaction score [51]: -1.39
interaction score [52]: -0.181
interaction score [53]: -0.995
interaction score [54]: -1.4
interaction score [55]: 1.43
interaction score [56]: -0.905
interaction score [57]: -2.01
Binder: DKIQQLKQENQELEQKIQELKWEIQELEQ [4H2729-bN]

interaction score [34]: -0.794
interaction score [35]: 1.56
interaction score [36]: -0.215
interaction score [37]: 0.513
interaction score [38]: 0.105
interaction score [39]: -1.02
interaction score [58]: 0.163
interaction score [41]: 1.72
interaction score [42]: -0.251
interaction score [43]: -0.798
interaction score [44]: -1.55
interaction score [59]: -0.514
interaction score [45]: -1.12
interaction score [46]: -1.12
interaction score [47]: -0.86
interaction score [48]: -0.122
interaction score [49]: -0.467
interaction score [60]: 1.5
interaction score [50]: -1.69
interaction score [51]: 2.18
interaction score [52]: -0.551
interaction score [53]: -0.671
interaction score [54]: 0.942
interaction score [61]: -1.2
interaction score [55]: 0.31
interaction score [62]: -0.572
interaction score [56]: -0.735
interaction score [57]: -0.0532
interaction score [63]: -1.28
interaction score [64]: -0.288
interaction score [65]: 0.858
Binder: DKIQQLKQEIQELKQKIQELKWENQELEQ [4H2667-bN]

Source: paper PMC10397247
